Experimental data published in patent publication US20190010233A1.
Values joined by “and” are separate entries in the source; they are usually repeats but may differ in a detail not shown here. Equal entries are not always repeated.

Assays:
[1] = biological target: human PD-L1^ECD-hFc protein (human) (UniProt Q9NZQ7); assay: ELISA, mAb concentration not given
hPD-L2 (human) = hPD-L2 (human) (UniProt Q9BQ51); assay: ELISA, mAb concentration not given
[2] = biological target: full length human PD-L1 on cells (human) (UniProt Q9NZQ7); assay: FACS CHOK1-hPD-L1, 0.03 nM mAb
[3] = biological target: full length cyno PD-L1 on cells (cyno) (UniProt G7PSE7); assay: FACS CHO-K1-cPD-L1, 0.003 nM mAb
[4] = biological target: human PD-L1^ECD-hFc protein (human) (UniProt Q9NZQ7); assay: ELISA, 0.00003 nM mAb
[5] = biological target: cyno PD-L1^ECD-hFc protein (cyno) (UniProt G7PSE7); assay: ELISA, 0.00003 nM mAb
[6] = biological target: full length cyno PD-L1 on cells (cyno) (UniProt G7PSE7); assay: FACS CHO-K1-cPD-L1, 0.001 nM mAb as printed (second such column)
[7] = biological target: human PD-L1^ECD-hFc protein (human) (UniProt Q9NZQ7); assay: ELISA, 0.370 nM mAb
[8] = biological target: cyno PD-L1^ECD-hFc protein (cyno) (UniProt G7PSE7); assay: ELISA, 0.370 nM mAb
[9] = biological target: full length cyno PD-L1 on cells (cyno) (UniProt G7PSE7); assay: FACS CHO-K1-cPD-L1, 100.00 nM mAb
[10] = biological target: human PD-L1^ECD-hFc protein (human) (UniProt Q9NZQ7); assay: ELISA, 0.03 nM mAb
[11] = biological target: cyno PD-L1^ECD-hFc protein (cyno) (UniProt G7PSE7); assay: ELISA, 0.03 nM mAb
[12] = biological target: full length human PD-L1 on cells (human) (UniProt Q9NZQ7); assay: FACS CHOK1-hPD-L1, 30 nM mAb
[13] = biological target: full length cyno PD-L1 on cells (cyno) (UniProt G7PSE7); assay: FACS CHO-K1-cPD-L1, 0.0003 nM mAb
[14] = biological target: full length cyno PD-L1 on cells (cyno) (UniProt G7PSE7); assay: FACS CHO-K1-cPD-L1, 0.001 nM mAb
[15] = biological target: human PD-L1^ECD-hFc protein (human) (UniProt Q9NZQ7); assay: ELISA, 30 nM mAb
[16] = biological target: human PD-L1^ECD-hFc protein (human) (UniProt Q9NZQ7); assay: ELISA, 0.01 nM mAb
[17] = biological target: cyno PD-L1^ECD-hFc protein (cyno) (UniProt G7PSE7); assay: ELISA, 0.01 nM mAb
[18] = biological target: full length human PD-L1 on cells (human) (UniProt Q9NZQ7); assay: FACS CHO-K1-hPD-L1, 1 nM mAb
[19] = biological target: full length cyno PD-L1 on cells (cyno) (UniProt G7PSE7); assay: FACS CHO-K1-cPD-L1, 0.14 nM mAb
[20] = biological target: full length cyno PD-L1 on cells (cyno) (UniProt G7PSE7); assay: FACS CHO-K1-cPD-L1, 0.41 nM mAb
[21] = biological target: full length cyno PD-L1 on cells (cyno) (UniProt G7PSE7); assay: FACS CHO-K1-cPD-L1, 11.11 nM mAb
[22] = biological target: human PD-L1^ECD-hFc protein (human) (UniProt Q9NZQ7); assay: ELISA, 0.1 nM mAb
[23] = biological target: cyno PD-L1^ECD-hFc protein (cyno) (UniProt G7PSE7); assay: ELISA, 0.1 nM mAb
[24] = biological target: full length cyno PD-L1 on cells (cyno) (UniProt G7PSE7); assay: FACS CHO-K1-cPD-L1, 300 nM mAb
[25] = biological target: human PD-L1^ECD-hFc protein (human) (UniProt Q9NZQ7); assay: ELISA, 3.333 nM mAb
[26] = biological target: cyno PD-L1^ECD-hFc protein (cyno) (UniProt G7PSE7); assay: ELISA, 3.333 nM mAb
[27] = biological target: full length cyno PD-L1 on cells (cyno) (UniProt G7PSE7); assay: FACS CHO-K1-cPD-L1, 3.70 nM mAb
[28] = biological target: full length cyno PD-L1 on cells (cyno) (UniProt G7PSE7); assay: FACS CHO-K1-cPD-L1, 1.23 nM mAb
[29] = biological target: human PD-L1^ECD-hFc protein (human) (UniProt Q9NZQ7); assay: ELISA, 0.0003 nM mAb
[30] = biological target: cyno PD-L1^ECD-hFc protein (cyno) (UniProt G7PSE7); assay: ELISA, 0.0003 nM mAb
[31] = biological target: full length cyno PD-L1 on cells (cyno) (UniProt G7PSE7); assay: FACS CHO-K1-cPD-L1, 0.01 nM mAb
[32] = biological target: full length human PD-L1 on cells (human) (UniProt Q9NZQ7); assay: FACS CHOK1-hPD-L1, 0.003 nM mAb
[33] = biological target: human PD-L1^ECD-hFc protein (human) (UniProt Q9NZQ7); assay: ELISA, 1 nM mAb
[34] = biological target: cyno PD-L1^ECD-hFc protein (cyno) (UniProt G7PSE7); assay: ELISA, 1 nM mAb
[35] = biological target: human PD-L1^ECD-hFc protein (human) (UniProt Q9NZQ7); assay: ELISA, 0.001 nM mAb
[36] = biological target: cyno PD-L1^ECD-hFc protein (cyno) (UniProt G7PSE7); assay: ELISA, 0.001 nM mAb
[37] = biological target: full length cyno PD-L1 on cells (cyno) (UniProt G7PSE7); assay: FACS CHO-K1-cPD-L1, 33.33 nM mAb
[38] = biological target: human PD-L1^ECD-hFc protein (human) (UniProt Q9NZQ7); assay: ELISA, 0.003 nM mAb
[39] = biological target: cyno PD-L1^ECD-hFc protein (cyno) (UniProt G7PSE7); assay: ELISA, 0.003 nM mAb

Sequence of cyno PD-L1^ECD-hFc protein (cyno) (G7PSE7 entry or part of it limits assumed): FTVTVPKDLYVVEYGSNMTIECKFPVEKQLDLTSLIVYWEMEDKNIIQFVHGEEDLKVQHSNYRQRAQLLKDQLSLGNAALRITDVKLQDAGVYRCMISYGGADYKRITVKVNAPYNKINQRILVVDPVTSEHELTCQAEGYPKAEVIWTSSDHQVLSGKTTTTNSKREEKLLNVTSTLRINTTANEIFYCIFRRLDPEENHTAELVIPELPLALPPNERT
Sequence of full length cyno PD-L1 on cells (cyno) (G7PSE7 entry or part of it limits assumed): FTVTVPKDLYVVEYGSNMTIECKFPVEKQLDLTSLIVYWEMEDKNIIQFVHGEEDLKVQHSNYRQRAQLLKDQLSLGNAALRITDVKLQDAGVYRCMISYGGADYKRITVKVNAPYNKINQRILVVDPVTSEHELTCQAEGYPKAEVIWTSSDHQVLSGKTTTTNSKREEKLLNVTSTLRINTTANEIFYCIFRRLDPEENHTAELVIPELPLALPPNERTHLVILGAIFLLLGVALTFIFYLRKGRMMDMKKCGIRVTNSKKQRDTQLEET
Sequence of full length human PD-L1 on cells (human) (Q9NZQ7 19-290 limits assumed): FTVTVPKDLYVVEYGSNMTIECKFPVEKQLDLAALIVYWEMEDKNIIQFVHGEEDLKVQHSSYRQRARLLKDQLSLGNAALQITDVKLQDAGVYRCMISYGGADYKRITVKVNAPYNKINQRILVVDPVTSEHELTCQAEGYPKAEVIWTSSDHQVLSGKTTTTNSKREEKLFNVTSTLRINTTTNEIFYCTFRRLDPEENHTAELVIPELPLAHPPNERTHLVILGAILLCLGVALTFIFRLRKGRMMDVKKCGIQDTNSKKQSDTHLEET
Sequence of human PD-L1^ECD-hFc protein (human) (Q9NZQ7 19-239): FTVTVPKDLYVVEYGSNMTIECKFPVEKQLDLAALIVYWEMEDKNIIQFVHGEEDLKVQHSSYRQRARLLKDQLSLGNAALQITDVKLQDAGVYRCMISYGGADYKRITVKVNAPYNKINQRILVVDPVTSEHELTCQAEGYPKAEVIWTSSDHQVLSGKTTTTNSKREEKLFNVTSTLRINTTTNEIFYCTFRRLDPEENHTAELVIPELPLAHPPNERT
Sequence of hPD-L2 (human) (Q9BQ51 20-219 limits assumed): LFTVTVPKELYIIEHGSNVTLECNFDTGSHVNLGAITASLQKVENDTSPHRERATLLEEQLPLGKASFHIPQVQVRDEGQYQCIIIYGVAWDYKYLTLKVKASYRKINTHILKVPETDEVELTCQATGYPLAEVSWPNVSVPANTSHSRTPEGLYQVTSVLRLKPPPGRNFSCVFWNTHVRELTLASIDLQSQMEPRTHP

**Q.** Which results are given for IgG control (human IgG) (antibody)?
**A.** OD450 nm [1]: 0.206; OD450 nm (hPD-L2 (human)): 0.189; Mean fluorescence intensity [2]: 2.92; Mean fluorescence intensity [3]: 3.62; OD450 nm [4]: 0.296; OD450 nm [5]: 0.31; Mean fluorescence intensity [6]: 7.33; OD450 nm [7]: 0.12; OD450 nm [8]: 0.12; Mean fluorescence intensity [9]: 3.33 and 8.11; OD450 nm [10]: 0.273; OD450 nm [11]: 0.276; Mean fluorescence intensity [12]: 5.73; Mean fluorescence intensity [13]: 3.76; Mean fluorescence intensity [14]: 1.9; OD450 nm [15]: 0.12; OD450 nm [16]: 0.154; OD450 nm [17]: 0.0987; Mean fluorescence intensity [18]: 2.51; Mean fluorescence intensity [19]: 2.74; Mean fluorescence intensity [20]: 2.69; Mean fluorescence intensity [21]: 2.93; OD450 nm [22]: 0.149; OD450 nm [23]: 0.0967; Mean fluorescence intensity [24]: 15.6; OD450 nm [25]: 0.11; OD450 nm [26]: 0.11; Mean fluorescence intensity [27]: 2.73; Mean fluorescence intensity [28]: 2.82; OD450 nm [29]: 0.338; OD450 nm [30]: 0.273; Mean fluorescence intensity [31]: 1.87; Mean fluorescence intensity [32]: 3.03; OD450 nm [33]: 0.157; OD450 nm [34]: 0.0989; OD450 nm [35]: 0.149; OD450 nm [36]: 0.0972; Mean fluorescence intensity [37]: 2.94; OD450 nm [38]: 0.298; OD450 nm [39]: 0.302
